# Target: HLA-A*02:01 (Homo sapiens, UniProt P04439, D140Y/D185E/D98H/E176V/E277Q/G131W/G231S/I119V/I121R/I166T/I218V/L300P/L318F/N151K/N90K/P208A/P217A/Q86G/Q94H/R138H/R169H/T345S)
# Assay: MHC binding assay: UV-ligand exchange with β2m ELISA
# Conditions: peptide exchange yield, binding to HLA-A*02:01
# Source text: Candidate peptides for T cell based therapies according to the present invention were further tested for their MHC binding capacity (affinity). The individual peptide-MHC complexes were produced by UV-ligand exchange, where a UV-sensitive peptide is cleaved upon UV-irradiation, and exchanged with the peptide of interest as analyzed. Only peptide candidates that can effectively bind and stabilize the peptide-receptive MHC molecules prevent dissociation of the MHC complexes. To determine the yield of the exchange reaction, an ELISA was performed based on the detection of the light chain (β2m) of stabilized MHC complexes. The assay was performed as generally described in Rodenko et al. (Rodenko et al., 2006).
# 96 well MAXISorp plates (NUNC) were coated over night with 2 ug/ml streptavidin in PBS at room temperature, washed 4× and blocked for 1 h at 37° C. in 2% BSA containing blocking buffer. Refolded HLA-A*02:01/MLA-001 monomers served as standards, covering the range of 15-500 ng/ml. Peptide-MHC monomers of the UV-exchange reaction were diluted 100 fold in blocking buffer. Samples were incubated for 1 h at 37° C., washed four times, incubated with 2 ug/ml HRP conjugated anti-β2m for 1 h at 37° C., washed again and detected with TMB solution that is stopped with […]. Absorption was measured at 450 nm. Candidate peptides that show a high exchange yield (preferably higher than 50%, most preferred higher than 75%) are generally preferred for a generation and production of antibodies or fragments thereof, and/or T cell receptors or fragments thereof, as they show sufficient avidity to the MHC molecules and prevent dissociation of the MHC complexes.
row,Substance,Peptide exchange
1,31 (ALLTAVTNV; listed as Homo sapiens) [compound 31],+++ (>50 = +++)
2,26 (SVLAGVVGV; listed as Homo sapiens) [compound 26],++++ (> 75% = ++++)
3,15 (GLLSVELRV; listed as Homo sapiens) [compound 15],++++ (> 75% = ++++)
4,29 (IGIGPVLNI; listed as Homo sapiens) [compound 29],+ (>10% = +)
5,4 (RLDIQGTGQLL; listed as Homo sapiens) [compound 4],+++ (>50 = +++)
6,19 (YLETMNITL; listed as Homo sapiens) [compound 19],+++ (>50 = +++)
7,11 (ALDPIIHGL; listed as Homo sapiens) [compound 11],++++ (> 75% = ++++)
8,30 (TLLDRVAVI; listed as Homo sapiens) [compound 30],+++ (>50 = +++)
9,25 (ILLELFTHV; listed as Homo sapiens) [compound 25],++++ (> 75% = ++++)
10,27 (VLNPETTVV; listed as Homo sapiens) [compound 27],+++ (>50 = +++)
11,24 (ILDAQTAFV; listed as Homo sapiens) [compound 24],+++ (>50 = +++)
12,16 (KLNSSIQYV; listed as Homo sapiens) [compound 16],+++ (>50 = +++)
13,34 (AIAGRLLGV; listed as Homo sapiens) [compound 34],++++ (> 75% = ++++)
14,22 (VLVSSVLGV; listed as Homo sapiens) [compound 22],+++ (>50 = +++)
15,12 (ALAPSEGVQAA; listed as Homo sapiens) [compound 12],++++ (> 75% = ++++)

# Now from value to substance:
row,Peptide exchange,Substance
1,+++ (>50 = +++),48 (ILAETQPEL; listed as Homo sapiens) [compound 48]
2,+++ (>50 = +++),37 (VLLATVTEL; listed as Homo sapiens) [compound 37]
3,++++ (> 75% = ++++),49 (ALLELLHEL; listed as Homo sapiens) [compound 49]
4,++++ (> 75% = ++++),53 (VMHDSSFSV; listed as Homo sapiens) [compound 53]
5,+++ (>50 = +++),35 (TLLPTLYEI; listed as Homo sapiens) [compound 35]
6,++++ (> 75% = ++++),41 (YIDDIFSGV; listed as Homo sapiens) [compound 41]
7,+++ (>50 = +++),47 (GLVEQLYDL; listed as Homo sapiens) [compound 47]
8,+++ (>50 = +++),51 (TVPPVFVSV; listed as Homo sapiens) [compound 51]
9,++++ (> 75% = ++++),44 (FLNGLEILL; listed as Homo sapiens) [compound 44]
10,+++ (>50 = +++),52 (ALISEKLETL; listed as Homo sapiens) [compound 52]
11,+++ (>50 = +++),39 (ALDGKIYEL; listed as Homo sapiens) [compound 39]
12,++++ (> 75% = ++++),50 (TLSTVIATV; listed as Homo sapiens) [compound 50]
13,+++ (>50 = +++),38 (RILDIDIPLSV; listed as Homo sapiens) [compound 38]
14,++++ (> 75% = ++++),40 (GLLGGVIMMV; listed as Homo sapiens) [compound 40]
15,+++ (>50 = +++),54 (TLSDVVVGL; listed as Homo sapiens) [compound 54]
16,+++ (>50 = +++),46 (NMDDVIYYV; listed as Homo sapiens) [compound 46]
17,+++ (>50 = +++),43 (VIANEIEKV; listed as Homo sapiens) [compound 43]
18,++++ (> 75% = ++++),42 (FLSGYYVTL; listed as Homo sapiens) [compound 42]
